This assay has as its target extracellular domain (ECD) of the IL-5 receptor α chain (IL-5R α) (human) (UniProt Q01344). Briefly: grade under 'Affinity'; IC50 values of 500 nm or less; competition with [125I] IL-5 for IL-5Rα ECD (Example 3), assay not given.

In general, IC50 refers to the point on the concentration scale where inhibition reaches its midpoint. Lower therefore signals inhibition by little substance.

Some results are limits rather than exact numbers.

For DGFVCVEWARCPNCR [D G F V C V E W A R C P N C R (SEQ ID NO:9)], the IC50 is < 500 nM.
On to DGYVCVEWARCPMCT [D G Y V C V E W A R C P M C T (SEQ ID NO:8)], for which the half-maximal inhibitory concentration (IC50) is < 500 nM.
Regarding DGYVCVEWARCPTCK [D G Y V C V E W A R C P T C K (SEQ ID NO:7)], the IC50 was < 500 nM.

The values above are taken from US5683983.
